Results on one molecule are retold here after paper PMC3189932, “Viral Double-Strand RNA-Binding Proteins Can Enhance Innate Immune Signaling by Toll-Like Receptor 3”.

One data set concerns the target R-cp (Ross River virus, UniProt P13890 1-270). The data set is described as follows: UV crosslinking; 4 mM Mg2+; 50 mM Tris-HCl pH 7.5, 4 mM MgCl2, 50 mM NaCl, 1 mM DTT; 400 ng protein, 1 pmol RNA; UV 1200 mJ 3 min then SDS-PAGE (crosslinking); nondenaturing stacked 5/20%. Particulars: protein: recombinant; label: Cy5; hairpin, 11-bp stem, GNRA tetraloop.
A further data set deals with T1, B-cp (Brome mosaic virus, UniProt P03602 1-189).
T1 sequence: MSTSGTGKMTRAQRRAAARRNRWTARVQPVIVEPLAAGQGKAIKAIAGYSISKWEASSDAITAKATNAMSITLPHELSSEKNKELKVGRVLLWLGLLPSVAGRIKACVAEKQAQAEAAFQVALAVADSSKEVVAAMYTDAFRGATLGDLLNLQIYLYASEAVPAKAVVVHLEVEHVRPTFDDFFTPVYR
Described as above. The conditions noted are these: protein: native; label: Cy5; hairpin, 11-bp stem, GNRA tetraloop.

Another data set concerns the target H-cp183 (Hepatitis B virus, UniProt P03147 1-183). The description is as above. The conditions noted are these: protein: recombinant; chain copies: 2; label: Cy5; hairpin, 11-bp stem, GNRA tetraloop.
For another data set, the target named is H-cp149 (Hepatitis B virus, UniProt P03147 1-149). The data set is described as follows: UV crosslinking; 4 mM Mg2+; no shift; 50 mM Tris-HCl pH 7.5, 4 mM MgCl2, 50 mM NaCl, 1 mM DTT; 400 ng protein, 1 pmol RNA; UV 1200 mJ 3 min then SDS-PAGE (crosslinking); nondenaturing stacked 5/20%. Particulars: protein: recombinant; chain copies: 2; label: Cy5; hairpin, 11-bp stem, GNRA tetraloop.
H-cp149, sequence (P03147 1-149): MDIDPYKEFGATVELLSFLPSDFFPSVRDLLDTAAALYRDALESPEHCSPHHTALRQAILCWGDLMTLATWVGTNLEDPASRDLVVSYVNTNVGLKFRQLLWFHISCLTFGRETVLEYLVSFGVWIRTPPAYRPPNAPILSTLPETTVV

H-cp183, sequence (P03147 whole entry): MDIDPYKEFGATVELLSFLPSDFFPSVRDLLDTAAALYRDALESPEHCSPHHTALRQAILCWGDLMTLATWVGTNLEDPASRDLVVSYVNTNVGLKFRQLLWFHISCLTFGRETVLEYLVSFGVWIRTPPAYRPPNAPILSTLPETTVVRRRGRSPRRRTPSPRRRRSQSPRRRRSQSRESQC
R-cp, sequence (P13890 1-270): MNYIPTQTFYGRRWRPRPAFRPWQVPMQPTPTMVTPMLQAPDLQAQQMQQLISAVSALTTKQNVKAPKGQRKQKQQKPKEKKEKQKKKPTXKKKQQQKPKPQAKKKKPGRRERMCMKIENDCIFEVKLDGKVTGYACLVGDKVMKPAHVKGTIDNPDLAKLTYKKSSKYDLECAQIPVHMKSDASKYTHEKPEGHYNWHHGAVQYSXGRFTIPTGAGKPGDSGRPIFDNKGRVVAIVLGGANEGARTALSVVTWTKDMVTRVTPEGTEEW

B1: SL26 (structured_RNA)
RNA: CCAAGUCAUUCGCAAGAGUGGCUUGG
In the case of B1, the binding result with R-cp is on record as “binds”; with B-cp, “binds”; with H-cp183, “binds”; with H-cp149, “no binding”.
